# Results from US20230002480A1.
# How the values were obtained:
# Assay in all cases: cell-based or functional assay
# [1] = biological target: HIV-1 Env of pseudovirus C1080.c03 (HIV-1)
# [2] = biological target: HIV-1 Env of pseudovirus 1012_11_TC21_3257 (HIV-1)
# [3] = biological target: HIV-1 Env of pseudovirus TRO.11 (HIV-1)
# [4] = biological target: HIV-1 Env of pseudovirus QH0692.42 (HIV-1)
# [5] = biological target: HIV-1 Env of pseudovirus C4118.c09 (HIV-1)
# [6] = biological target: HIV-1 Env of pseudovirus T251-18 (HIV-1)
# [7] = biological target: HIV-1 Env of pseudovirus 3415.v1.c1 (HIV-1)
Substance,"IC50, titer in TZM.bl cells [1]","IC80, titer in TZM.bl cells [1]",neutralization IC50 [2],neutralization IC80 [2],neutralization IC50 [3],neutralization IC80 [3],neutralization IC50 [4],neutralization IC80 [4],"IC50, titer in TZM.bl cells [5]","IC80, titer in TZM.bl cells [5]",IC50 [2],IC80 [2],IC50 [3],IC80 [3],IC50 [4],IC80 [4],"IC50, titer in TZM.bl cells [6]","IC80, titer in TZM.bl cells [6]",further results
8ANC195 (antibody),0.17 µg/mL,1.12 µg/mL,> 50 µg/mL,> 50 µg/mL,0.18 µg/mL,0.89 µg/mL,2.71 µg/mL,17.1 µg/mL,0.2 µg/mL,0.71 µg/mL,,,,,,,,,
PGT151 (antibody),> 50 µg/mL,> 50 µg/mL,,,,,,,> 50 µg/mL,> 50 µg/mL,> 50 µg/mL,> 50 µg/mL,> 50 µg/mL,> 50 µg/mL,0.029 µg/mL,0.522 µg/mL,0.327 µg/mL,> 50 µg/mL,
NIH 45-46 (antibody),1.79 µg/mL,18 µg/mL,0.01 µg/mL,0.04 µg/mL,1.9 µg/mL,9.56 µg/mL,0.55 µg/mL,1.56 µg/mL,0.14 µg/mL,0.91 µg/mL,,,,,,,5.26 µg/mL,5.26 µg/mL,neutralization IC50 [7]: 0.07 µg/mL; neutralization IC80 [7]: 0.07 µg/mL
PGT121 (antibody),,,,,,,,,,,0.003 µg/mL,0.017 µg/mL,0.005 µg/mL,0.025 µg/mL,0.302 µg/mL,2.31 µg/mL,,,IC50 [1]: > 50 µg/mL; IC80 [1]: > 50 µg/mL; IC50 [6]: 29 µg/mL; IC80 [6]: > 50 µg/mL; IC50 [5]: > 50 µg/mL; IC80 [5]: > 50 µg/mL
PGDM1400 (antibody),< 0.001 µg/mL,< 0.001 µg/mL,,,,,,,0.002 µg/mL,0.005 µg/mL,0.049 µg/mL,0.23 µg/mL,0.283 µg/mL,1.38 µg/mL,> 50 µg/mL,> 50 µg/mL,8.62 µg/mL,43.1 µg/mL,
VRC01 (antibody),3.4 µg/mL,14.4 µg/mL,,,,,,,,,,,,,,,,11.2 µg/mL,"IC50, titer in TZM.bl cells [2]: 0.12 µg/mL; IC80, titer in TZM.bl cells [2]: 0.32 µg/mL; IC50, titer in TZM.bl cells [3]: 0.21 µg/mL; IC80, titer in TZM.bl cells [3]: 0.83 µg/mL; IC50, titer in TZM.bl cells [4]: 1.5 µg/mL; IC80, titer in TZM.bl cells [4]: 4.8 µg/mL; IC50, titer in TZM.bl cells [7]: 0.06 µg/mL; IC80, titer in TZM.bl cells [7]: 0.15 µg/mL"
3BNC117 (antibody),0.25 µg/mL,1.73 µg/mL,0.02 µg/mL,0.07 µg/mL,< 0.09 µg/mL,< 0.09 µg/mL,0.13 µg/mL,0.49 µg/mL,0.09 µg/mL,0.52 µg/mL,,,,,,,0.26 µg/mL,0.82 µg/mL,neutralization IC50 [7]: 0.17 µg/mL; neutralization IC80 [7]: 0.47 µg/mL
PGT145 (antibody),0.024 µg/mL,0.146 µg/mL,,,,,,,< 0.001 µg/mL,0.004 µg/mL,0.009 µg/mL,0.025 µg/mL,0.04 µg/mL,0.118 µg/mL,> 50 µg/mL,> 50 µg/mL,0.351 µg/mL,1.39 µg/mL,
VRC07 (antibody),2.03 µg/mL,8.25 µg/mL,0.014 µg/mL,0.045 µg/mL,0.132 µg/mL,0.456 µg/mL,0.5 µg/mL,1.86 µg/mL,0.121 µg/mL,0.444 µg/mL,,,,,,,1.32 µg/mL,6.49 µg/mL,neutralization IC50 [7]: 0.036 µg/mL; neutralization IC80 [7]: 0.152 µg/mL
N49P6 (antibody),,,,,,,,,,,0.137 µg/mL,0.502 µg/mL,0.061 µg/mL,0.19 µg/mL,0.652 µg/mL,2.28 µg/mL,,,IC50 [1]: 0.181 µg/mL; IC80 [1]: 0.661 µg/mL; MPI [1]: 100; MPI [2]: 100; MPI [3]: 100; MPI [4]: 100; IC50 [6]: 0.344 µg/mL; IC80 [6]: 0.929 µg/mL; MPI [6]: 100; IC50 [5]: 0.092 µg/mL; IC80 [5]: 0.243 µg/mL; MPI [5]: 100; IC50 [7]: 0.188 µg/mL; IC80 [7]: 0.648 µg/mL; MPI [7]: 100
PGT128 (antibody),0.283 µg/mL,2.06 µg/mL,,,,,,,> 50 µg/mL,> 50 µg/mL,0.011 µg/mL,0.033 µg/mL,0.019 µg/mL,0.045 µg/mL,0.029 µg/mL,0.081 µg/mL,> 50 µg/mL,> 50 µg/mL,
